First the molecules themselves.
B1: Haloalkane dehalogenase, D4Z2G1 (parent)
chain: MSLGAKPFGEKKFIEIKGRRMAYIDEGTGDPILFQHGNPTSSYLWRNIMPHCAGLGRLIACDLIGMGDSDKLDPSGPERYAYAEHRDYLDALWEALDLGDRVVLVVHDWGSALGFDWARRHRERVQGIAYMEAIAMPIEWADFPEQDRDLFQAFRSQAGEELVLQDNVFVEQVLPGLILRPLSEAEMAAYREPFLAAGEARRPTLSWPRQIPIAGTPADVVAIARDYAGWLSESPIPKLFINAEPGALTTGRMRDFCRTWPNQTEITVAGAHFIQEDSPDEIGAAIAAFVRRLRPA

The variants in this data set derive from B1. The conditions noted are these: Sphingobium indicum (strain DSM 16413 / CCM 7287 / MTCC 6362 / UT26 / NBRC 101211 / UT26S); pH 7.5; Thermal; fluorescence; Na-Hepes 50 mM; reversible: no; structure 1MJ5; whole UniProt chain shown.

With MSLGAKPFGEKKFIEIKGRRMAYIDEGTGDPILFQHGNPTSSYLWRNIMPHCAGLGRLIACDLIGMGDSDKLDPSGPERYAYAEHRDYLDALWEALDLGDRVVLVVHDWGSALGFDWARRHRERVQGIAYMEVIAMPIEWADFPEQDRDLFQAFRSQAGEELVLQDNVFVEQVLPGLILRPLSEAEMAAYREPFLAAGEARRPTLSWPRQIPIAGTPADVVAIARDYAGWLSESPIPKLFINAEPGALTTGRMRDFCRTWPNQTEITVAGAHFIQEDSPDEIGAAIAAFVRRLRPA [A133V], the melting temperature (Tm) came out at 51 °C and the “change of melting temperature, mutant - wild type (higher = more stable)” value (shortened to “change of melting temperature, mutant”) was found to be 0 °C.

Turning to MSLGAKPFGEKKFIEIKGRRMAYIDEGTGDPILFQHGNPTSSYLWRNIMPHCAGLGRLIACDLIGMGDSDKLDPSGPERYAYAEHRDYLDALWEALDLGDRVVLVVHDWGSALGFDWARRHRERVQGIAYMEAIAMPIEWADFPEQDRDLFQAFRSQAGEELVLQDNVFVEQVLPGLILRPLSEAEMAAYREPFLAAGEARRPTLSWPRQIPIAGTPADVVAIARDYAGWLSESPIPKLFINAEPGALTTGRMRDFCRTWPNQTEITVAGVHFIQEDSPDEIGAAIAAFVRRLRPA [A271V], the Tm worked out at 62 °C and the “change of melting temperature, mutant” value worked out at 11 °C.

In the case of MSLGAKPFGEKKFIEIKGRRMAYIDEGTGDPILFQHGNPTSSYLWRNIMPHCAGLGRLIACDLIGMGDSDKLDPSGPERYAYAEHRDYLDALWEALDLGDRVVLVVHDWGSALGFDWARRHRERVQGIAYMEAIAMPIEWADFPEQDRDLFQKFRSQAGEELVLQDNVFVEQVLPGLILRPLSEAEMAAYREPFLAAGEARRPTLSWPRQIPIAGTPADVVAIARDYAGWLSESPIPKLFINAEPGALTTGRMRDFCRTWPNQTEITVAGAHFIQEDSPDEIGAAIAAFVRRLRPA [A153K], the midpoint of thermal melting (Tm) is 61 °C and the “change of melting temperature, mutant” value amounted to 10 °C.

Take MSLGAKPFGEKKFIEIKGRRMAYIDEGTGDPILFQHGNPTSSYLWRNIMPHCAGLGRLIACDLIGMGDSDKLDPSGPERYAYAEHRDYLDALWEALDLGDRVVLVVHDWGSALGFDWARRHRERVQGIAYMEAIAMPIKWADFPEQDRDLFQAFRSQAGEELVLQDNVFVEQVLPGLILRPLSEAEMAAYREPFLAAGEARRPTLSWPRQIPIAGTPADVVAIARDYAGWLSESPIPKLFINAEPGALTTGRMRDFCRTWPNQTEITVAGAHFIQEDSPDEIGAAIAAFVRRLRPA [E139K]: the Tm is 58.5 °C and the “change of melting temperature, mutant” value was determined as 7.5 °C.

For MSLGAKPFGEKKFIEIKGRRMAYIDEGTGDPILFQHGNPTSSYLWRNIMPHCAGLGRLIACDLIGMGDSDKLDPSGPERYKYAEHRDYLDALWEALDLGDRVVLVVHDWGSALGFDWARRHRERVQGIAYMEAIAMPIEWADFPEQDRDLFQAFRSQAGEELVLQDNVFVEQVLPGLILRPLSEAEMAAYREPFLAAGEARRPTLSWPRQIPIAGTPADVVAIARDYAGWLSESPIPKLFINAEPGALTTGRMRDFCRTWPNQTEITVAGAHFIQEDSPDEIGAAIAAFVRRLRPA [A81K], the midpoint of thermal melting (Tm) was determined as 52 °C and the “change of melting temperature, mutant” value worked out at 1 °C.

MSLGAKPFGEKKFIEIKGRRMAYIDEGTGDPILFQHGNPTSSYLWRNIMPHCAGLGRLIACDLIGMGDSDKLDPSGPERYAYAEHRDYLDALWEALDLGDRVVLVVHDWGSALGFDWARRHRERVQGIAYMEAIAMPIEWADFPEQDRDLFQAFRSQAGEELVLQDNVFVEQVLPGLILRPLSEAEMAAYREPFLAAGEARRPTLSWPRQIPIAGTPADVVAIARDYAGWLSESPIPKLFINAEPGALTTGRMRDFCRTWPNQTEITVAGAHFIQEDSPDEIGAAIAAFVRRLRPR [A296R]: the melting temperature (Tm) was 50.5 °C and the “change of melting temperature, mutant” value is -0.5 °C.

As for MSLGAKPFGEKKFIEIKGRRMAYIDEGTGDPILFQHGNPTSSYLWRNIMPHCAGLGRLIACDLIGMGDSDKLDPSGPERYAYAEHRDYLDALWEALDLGDRVVLVVHDWGSALGFDWARRHRERVQGIAYMEAIAMPIEWADFPEQDRQLFQAFRSQAGEELVLQDNVFVEQVLPGLILRPLSEAEMAAYREPFLAAGEARRPTLSWPRQIPIAGTPADVVAIARDYAGWLSESPIPKLFINAEPGALTTGRMRDFCRTWPNQTEITVAGAHFIQEDSPDEIGAAIAAFVRRLRPA [D149Q], the midpoint of thermal melting (Tm) is 62 °C and the “change of melting temperature, mutant” value was determined as 11 °C.

On to MSLGAKPFGEKKFIEIKGRRMAYIDEGTGDPILFQHGNPTSSYLWRNIMPHCAGLGRLIACDLIGMGDSDKLDPSGPERYAYAEHRDYLDALWEALDLGDRVVLVVHDWGSALGFDWARRHRERVQGIAYMEAIAMPIEWADFPEQDRDLFQAFRSQAGEELVLQDNVFVEQVLPGLILRPLSEAEMAAYREPFLAAGEARRPTLSWPRQIPIAGTPADVVAIARDYAGWLSESPIPKLFINAEPGALTTGRMRAFCRTWPNQTEITVAGAHFIQEDSPDEIGAAIAAFVRRLRPA [D255A], for which the Tm worked out at 51.5 °C and the “change of melting temperature, mutant” value turned out to be 0.5 °C.

In the case of MSLGAKPFGEKKFIEIKGRRMAYIDEGTGDPILFQHGNPTSSYLWRNIMPHCAGLGRLIACDLIGMGDSDKLDPSGPERYAYAEHRDYLDALWEALDLGDRVVLVVHDWGSALGFDWARRHRERVQGIAYMEAIAMPIEWADFPEQYRDLFQAFRSQAGEELVLQDNVFVEQVLPGLILRPLSEAEMAAYREPFLAAGEARRPTLSWPRQIPIAGTPADVVAIARDYAGWLSESPIPKLFINAEPGALTTGRMRDFCRTWPNQTEITVAGAHFIQEDSPDEIGAAIAAFVRRLRPA [D147Y], the Tm came out at 65 °C and the “change of melting temperature, mutant” value came to 14 °C.

Turning to MSLGAKPFGEKKFIEIKGRRMAYIDEGTGDPILFQHGNPTSSYLWRNIMPHCAGLGRLIACDLIGMGDSDKLDPSGPERYAYAEHRDYLDALWEALDLGDRVVLVVHDWGSALGFDWARRHRERVQGIAYMEAIAMPIEWADFPEQMRDLFQAFRSQAGEELVLQDNVFVEQVLPGLILRPLSEAEMAAYREPFLAAGEARRPTLSWPRQIPIAGTPADVVAIARDYAGWLSESPIPKLFINAEPGALTTGRMRDFCRTWPNQTEITVAGAHFIQEDSPDEIGAAIAAFVRRLRPA [D147M], the midpoint of thermal melting (Tm) was found to be 66 °C and the “change of melting temperature, mutant” value is 15 °C.

A word on the Tm: it is the temperature at which the thermal transition is half complete.

The values above are taken from FireProtDB (doi:10.1002/cbic.201402128).
